The values that follow come from PMC5651819, “AtSPX1 affects the AtPHR1–DNA-binding equilibrium by binding monomeric AtPHR1 in solution”.

For orientation: Kd means a measure of binding affinity in units of concentration.

For one series, the target named is MBP-AtdPHR1 (Arabidopsis thaliana, UniProt Q94CL7 208-362). The series is described as follows: SPR; 1:1 fit at 2.5 nM protein, n = 3; ka 3.5e4 M-1 s-1, kd 0.00049 s-1; SPR (Biacore 3000, SA chip, ~500 RU DNA): 10 mM HEPES pH 7.5, 200 mM NaCl, 0.01% Surfactant P-20, 25 C, 40 ul/min, with or without Pi/InsP6. The note with it: protein: recombinant; tags: N-terminal MBP (pMAL-c2x); chain copies: 2; label: 5'-biotin on strand 1; blunt.
MBP-AtdPHR1, sequence (Q94CL7 208-362): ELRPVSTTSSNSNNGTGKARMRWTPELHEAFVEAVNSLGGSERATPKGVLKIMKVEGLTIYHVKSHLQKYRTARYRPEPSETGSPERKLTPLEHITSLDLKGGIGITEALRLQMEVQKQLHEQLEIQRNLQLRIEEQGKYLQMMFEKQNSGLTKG

A further series has as its target T1, GST-AtSPX1 (Arabidopsis thaliana, UniProt Q8LBH4 1-256).
T1 sequence: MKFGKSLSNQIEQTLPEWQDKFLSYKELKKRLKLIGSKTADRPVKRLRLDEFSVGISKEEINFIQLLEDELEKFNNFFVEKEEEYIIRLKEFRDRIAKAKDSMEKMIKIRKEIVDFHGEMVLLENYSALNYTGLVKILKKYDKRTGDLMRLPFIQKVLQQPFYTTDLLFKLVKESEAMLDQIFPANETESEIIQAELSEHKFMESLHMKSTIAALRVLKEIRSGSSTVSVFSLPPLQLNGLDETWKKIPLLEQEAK
The series is described as follows: SPR; ~1000 nM GST-AtSPX1 after buffer, with or without 5 mM Pi; low near-baseline signal taken as non-specific; SPR (Biacore 3000, SA chip, ~500 RU DNA): 10 mM HEPES pH 7.5, 200 mM NaCl, 0.01% Surfactant P-20, 25 C, 40 ul/min, with or without Pi/InsP6. The note with it: protein: recombinant; tags: N-terminal GST (pGEX-2T); label: 5'-biotin on strand 1; blunt. On the technique in general: SPR reads the build-up and loss of mass on a sensor chip optically.

B1: 2x P1BS probe (dsDNA)
DNA 1: CAGAGAAAAAAGGATATTCTAATTAGAAACCTTAAGAATATTCTTTTTAATCCC
DNA 2: GGGATTAAAAAGAATATTCTTAAGGTTTCTAATTAGAATATCCTTTTTTCTCTG
With B1, the Kd in the series with MBP-AtdPHR1 was 14 ± 2.4 nM. In the series with GST-AtSPX1, the binding result is listed as “no binding”.
